Assay results: US20040132029, “Method of error reduction in nucleic acid populations” (published 2004)

Biological target: T1, MutS (MutSt) (UniProt Q56215 Q56215:1-811)
T1 sequence: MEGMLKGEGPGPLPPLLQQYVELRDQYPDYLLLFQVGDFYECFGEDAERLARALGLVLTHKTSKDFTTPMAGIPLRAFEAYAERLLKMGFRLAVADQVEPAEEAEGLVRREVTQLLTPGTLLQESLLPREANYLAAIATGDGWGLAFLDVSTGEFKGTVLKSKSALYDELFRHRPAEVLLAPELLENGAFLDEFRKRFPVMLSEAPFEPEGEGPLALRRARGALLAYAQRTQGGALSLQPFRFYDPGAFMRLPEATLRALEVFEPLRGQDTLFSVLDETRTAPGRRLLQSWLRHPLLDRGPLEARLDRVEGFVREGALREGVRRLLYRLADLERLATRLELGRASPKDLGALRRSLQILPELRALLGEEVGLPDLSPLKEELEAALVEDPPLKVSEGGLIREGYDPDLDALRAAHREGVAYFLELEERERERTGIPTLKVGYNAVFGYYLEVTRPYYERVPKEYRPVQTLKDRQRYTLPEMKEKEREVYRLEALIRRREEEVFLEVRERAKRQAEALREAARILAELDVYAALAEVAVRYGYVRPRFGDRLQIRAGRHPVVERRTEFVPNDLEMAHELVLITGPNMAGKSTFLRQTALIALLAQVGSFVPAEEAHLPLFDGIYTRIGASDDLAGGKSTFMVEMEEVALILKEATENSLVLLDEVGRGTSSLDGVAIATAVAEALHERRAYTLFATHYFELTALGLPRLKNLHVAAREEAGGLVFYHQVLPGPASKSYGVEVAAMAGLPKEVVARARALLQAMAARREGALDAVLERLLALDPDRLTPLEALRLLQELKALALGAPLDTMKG
Experiment: EMSA; 10 mM Tris-HCl pH 8.8, 5 mM MgCl2, 0.1% Triton X-100, 37 C; preferred over wt; tenfold unlabeled del20 competes, proteinase K removes shift
Settings: tags: Epicenter Technologies, Madison, Wis; label: 5' fluorescein on anti-sense strand; single unpaired base (deletion at position 20 of anti-sense)
Protocol: In a typical reaction 80 pmols of unlabeled sense strand were mixed with 40 pmols of Cy5 labeled anti-sense strand and 40 pmols of fluorescein labeled mutant strand (del20 or C>A) in 1× Muts buffer ( 10 mM Tris-HCl pH 8.8, 5 mM MgCl₂, 0.1% TritonX-100). The mixture was annealed in a thermocycler after being first denatured at 95° C. for 5 minutes. The mixture was then cooled at 0.2° C./sec until temperature reaches 25° C. The duplex DNA thus created is illustrated in FIG. 5.
2 or 6 μg of MutSₜ protein (Epicenter Technologies, Madison, Wis.) was added to the annealed oligonucleotides. The mixture was then incubated at 37° C. for 30 minutes.

B1: GFPuv 351-390 del20 heteroduplex (dsDNA)
DNA 1: GTTAATGGGCACAAATTTTCTGTCAGTGGAGAGGGTGAAG
DNA 2: CTTCACCCTCTCCACTGACGAAAATTTGTGCCCATTAAC
**Q.** Does B1 bind?
**A.** binds
